Experimental data: patent US20240287172A1 (SCIRHOM, published 2024)
Where a chain is given by its changes, count along the chain named.

Experiments:
Experiment in all cases: FACS, MEF-DKO cells, 3 µg/ml
hiR2-FL-S545F-T7 = target: T1, hiR2-FL-S545F-T7 (human, UniProt Q6PJF5 1-856)
T1 sequence: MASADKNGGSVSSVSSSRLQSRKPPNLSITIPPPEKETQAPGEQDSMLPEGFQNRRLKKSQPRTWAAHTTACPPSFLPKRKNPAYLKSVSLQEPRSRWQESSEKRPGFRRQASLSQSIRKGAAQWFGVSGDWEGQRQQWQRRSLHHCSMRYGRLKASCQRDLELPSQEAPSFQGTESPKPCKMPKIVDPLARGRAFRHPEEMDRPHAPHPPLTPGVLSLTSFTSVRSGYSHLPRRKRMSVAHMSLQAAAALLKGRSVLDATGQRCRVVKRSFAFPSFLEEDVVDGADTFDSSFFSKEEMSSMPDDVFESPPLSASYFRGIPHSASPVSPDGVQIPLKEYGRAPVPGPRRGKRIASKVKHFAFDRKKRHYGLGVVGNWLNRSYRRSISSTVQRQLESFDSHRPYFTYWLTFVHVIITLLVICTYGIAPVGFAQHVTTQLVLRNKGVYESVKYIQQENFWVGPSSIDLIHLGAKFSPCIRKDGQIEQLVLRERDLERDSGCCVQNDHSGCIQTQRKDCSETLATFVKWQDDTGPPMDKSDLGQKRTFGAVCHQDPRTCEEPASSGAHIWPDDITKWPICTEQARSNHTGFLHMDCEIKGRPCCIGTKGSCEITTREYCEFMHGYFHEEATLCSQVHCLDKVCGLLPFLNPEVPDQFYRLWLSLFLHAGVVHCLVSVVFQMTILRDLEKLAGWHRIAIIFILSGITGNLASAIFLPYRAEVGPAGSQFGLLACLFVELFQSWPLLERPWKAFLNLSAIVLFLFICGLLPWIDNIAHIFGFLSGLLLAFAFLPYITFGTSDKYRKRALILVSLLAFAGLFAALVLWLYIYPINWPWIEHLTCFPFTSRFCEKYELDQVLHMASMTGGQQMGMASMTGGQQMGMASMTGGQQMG

hiR2-FL-D515E-T7 = target: T2, hiR2-FL-D515E-T7 (human, UniProt Q6PJF5 1-856)
T2 sequence: T1 sequence with D515E, F545S

hiR2-FL-D538L-T7 = target: T3, hiR2-FL-D538L-T7 (human, UniProt Q6PJF5 1-856)
T3 sequence: T1 sequence with D538L, F545S

Measured: loss of binding vs wild type

B1: antibody 48 (antibody, V domains shown)
VH: QVQLQQSGTELVRPGTSVKVSCKASGYAFTNYLIEWVKQRPGQGLEWIGVINPGSGFTKYNEKFKGKATLTADKSSSTVYMHLSSLTSEDSAVYFCARGLYRAMDYWGQGTSVTVSS
VL: DIQMTQSPASQSASLGESVTITCLASQTIATWLAWYQQKPGKSPQLLIYGATTLADGVPSRFSGGGSGTKFSFKISSLQAEDFVSYYCQQLYSTPYTFGGGTKLEIK
notes: mouse IgG, kappa light chain; also called clone #48; purified antibody 48
≥ 30%: all assays above
